This data set concerns the molecule itself. Nature of the data set: SEC-MALS.

B1: Exo-β-N-acetylmuramidase NamZ of Bacillus subtilis 168, recombinant, C-terminal His6-tag fusion protein (enzyme)
chain: SPDSKNQTAKKPKVQTGIDTLLPDYKKQLKGKRIGLITNPAGVNTSLKSSVDILYENPDIKLTALFGPEHGVRGDAQAGDEVGSYIDEKTGVPVYSLYGKTKKPTPEMLKNVDILMFDIQDVGTRFYTYIYTMAYAMEAAKENGIPFMVLDRPNPQGGNHIEGPILEPEYASFVGLYPIPLKHGMTIGELASLFNKEFSIDADLTVVKMKHWKRKMDFDDTRLPFVLPSPNMPTVESTFVYPATGLIEGTNISEGRGTTKPFELIGAPFIKSTELEETLNSLHLPGVTFRAASFTPTFSKHQGTLCHGVQLYVTDRDKFEAVKTGLSVIKTIHDLYPEDFEFLSTGSFDKLAGNGWIRTKIENGTSVENIINSYEKTLQQFSKTRKKYLIY
The term stoichiometry N denotes a count of units in the complex or per binding partner. Consider B1, for which the “stoichiometry N” value is 2.

The record behind these values is paper doi:10.1101/2021.01.10.425899 (bioRxiv, 2021).
